Assay results as given in the RNAGym collection of RNA variant scans (doi:10.1073/pnas.2313332121).

B1: TPR t1 (parent)
chain: GACCAAUCUGCCCUCAGAGCUCGAGAACAUCUUCGGAUGCAGAGGAGGCAGGCUUCGGUGGCGCGAUAGCGCCAACGUCCUCAACCUCCAAUGCAUCCCACCACAUGAUGAUGCCUGAAGAGCCUUGGUUUUUUG

Variants of: B1
Experiment: polymerase ribozyme fitness, log enrichment relative to wild type (log ratio); higher = more active; in vitro selection for triplet polymerase activity
Outline: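 The heterodimeric triplet polymerase ribozyme's subunits were each mutagenized into PCR-built libraries and transcribed. Every library was selected once, in triplicate, by annealing with a biotinylated primer, the partner subunit and triplets, incubating frozen at −7 °C, gel-excising extended constructs, capturing on streptavidin beads and running RT-PCR. Input and output libraries were Illumina-sequenced, with genotypes kept only at ≥10 input reads and ≥1 read per output. Fitness, from inverse-variance-weighted replicate averages, is the base-2 logarithm of genotype enrichment over wild-type enrichment.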
In the case of G42U C53U C82U G93A C99A G107U C114G C123G U125A G127A, the “polymerase ribozyme fitness (log ratio)” value is reported as -4.42. For C8G G60C U81A C123A, the “polymerase ribozyme fitness (log ratio)” value was 0.434. In the case of C15U C72U G110C, the “polymerase ribozyme fitness (log ratio)” value is reported as -5.35. In the case of G36A A46U G60C C124U, the “polymerase ribozyme fitness (log ratio)” value is reported as -0.384. For C12G C13U G19U G44C C73A G93A, the “polymerase ribozyme fitness (log ratio)” value was -4.75. For A2U G36C A74C, the “polymerase ribozyme fitness (log ratio)” value was -3.04. In the case of A2U C8U C11G, the “polymerase ribozyme fitness (log ratio)” value is reported as -0.458. In the case of G52A G122A, the “polymerase ribozyme fitness (log ratio)” value is reported as -0.494. In the case of C11A C12U, the “polymerase ribozyme fitness (log ratio)” value is reported as -0.179. For A29G G42A G69C, the “polymerase ribozyme fitness (log ratio)” value was -4.23. With G10C A66C C79U the “polymerase ribozyme fitness (log ratio)” value was -2.72. With A26C A46C C115G the “polymerase ribozyme fitness (log ratio)” value was -6.72. For G17U U96C, the “polymerase ribozyme fitness (log ratio)” value was -3.71. In the case of A24G G48A G93A C97U A111G, the “polymerase ribozyme fitness (log ratio)” value is reported as -3.16. In the case of C49G G77U U78A C85A, the “polymerase ribozyme fitness (log ratio)” value is reported as -1.63. For G17A C22A, the “polymerase ribozyme fitness (log ratio)” value was -5.66. With A6C C12U U38G C80U the “polymerase ribozyme fitness (log ratio)” value was -1.42. For C13G G36A A95C, the “polymerase ribozyme fitness (log ratio)” value was -4.52. With C22U C31G G63C C82A U87C U112A the “polymerase ribozyme fitness (log ratio)” value was -6.33. With C8G U21C G45U C49G the “polymerase ribozyme fitness (log ratio)” value was -0.918. In the case of C76A C79U A90U A119C G120U, the “polymerase ribozyme fitness (log ratio)” value is reported as -1.56. In the case of C8U A16C C64U U112C U132A, the “polymerase ribozyme fitness (log ratio)” value is reported as 1.19. With C15A C94U C114G U126A the “polymerase ribozyme fitness (log ratio)” value was -5.6. With U9G A46G C73U A75G U96A U106G the “polymerase ribozyme fitness (log ratio)” value was -3.78. In the case of U32C G113U C123U, the “polymerase ribozyme fitness (log ratio)” value is reported as -3.78. For A41U A84G G122A, the “polymerase ribozyme fitness (log ratio)” value was -3.29. In the case of C98U G113U, the “polymerase ribozyme fitness (log ratio)” value is reported as -3.5. With G52A G69C C104U G113C the “polymerase ribozyme fitness (log ratio)” value was -4.79. In the case of U21G C88A, the “polymerase ribozyme fitness (log ratio)” value is reported as -1.66. With G57A A84U the “polymerase ribozyme fitness (log ratio)” value was -0.813. For G51A A90G G113C, the “polymerase ribozyme fitness (log ratio)” value was -5.54. With C8A C64U C104A G120A the “polymerase ribozyme fitness (log ratio)” value was 0.21. In the case of C12U G47U A119C C123A, the “polymerase ribozyme fitness (log ratio)” value is reported as -2.6. For C11U G52A C94G C104A A121G, the “polymerase ribozyme fitness (log ratio)” value was -2. In the case of C40U G120A, the “polymerase ribozyme fitness (log ratio)” value is reported as 0.164. With G17U G52U A83G C85U G120U the “polymerase ribozyme fitness (log ratio)” value was -3.18. In the case of C34G C40U G113A C124A, the “polymerase ribozyme fitness (log ratio)” value is reported as -7.14. With C8A A43C the “polymerase ribozyme fitness (log ratio)” value was -1.76. In the case of C20G C124G, the “polymerase ribozyme fitness (log ratio)” value is reported as -3.06. With A6C A41U U106A the “polymerase ribozyme fitness (log ratio)” value was -1.37. For G25U C94U C101U G113A C124A, the “polymerase ribozyme fitness (log ratio)” value was -7.17. In the case of A27C C72G U81C, the “polymerase ribozyme fitness (log ratio)” value is reported as -4.5. In the case of G57C C104U G110C U131A, the “polymerase ribozyme fitness (log ratio)” value is reported as -4.01. For A74G G120C, the “polymerase ribozyme fitness (log ratio)” value was 0.921. For U7G U21C U59G G63A U116G C124G U131A, the “polymerase ribozyme fitness (log ratio)” value was -5.19. In the case of C53A C89U U131G, the “polymerase ribozyme fitness (log ratio)” value is reported as 0.265. For C12U C49U G63U, the “polymerase ribozyme fitness (log ratio)” value was -1.49. In the case of U55A G63A C73A, the “polymerase ribozyme fitness (log ratio)” value is reported as -1.05. In the case of C15U C22U C72U G120C, the “polymerase ribozyme fitness (log ratio)” value is reported as -3.96. In the case of C11G A16G G71U C101A G128U, the “polymerase ribozyme fitness (log ratio)” value is reported as -3.82. In the case of A24U U38G C114A U126G U132A, the “polymerase ribozyme fitness (log ratio)” value is reported as -6.67. With A16U C56U the “polymerase ribozyme fitness (log ratio)” value was -1.86. With G47C U126A the “polymerase ribozyme fitness (log ratio)” value was -4.53. For U7A A29G A83C, the “polymerase ribozyme fitness (log ratio)” value was -0.648. With A46C C53U U112A the “polymerase ribozyme fitness (log ratio)” value was 0.835. With G19C G110C C114U the “polymerase ribozyme fitness (log ratio)” value was -5.66. With G61A U81G A84G A91G A111G the “polymerase ribozyme fitness (log ratio)” value was -4.48. For A18U C28U G36U C70U C79G G120A C124A, the “polymerase ribozyme fitness (log ratio)” value was -6.76. In the case of A5U U87G U130C, the “polymerase ribozyme fitness (log ratio)” value is reported as 0.627. For G57U A74U C79U, the “polymerase ribozyme fitness (log ratio)” value was -0.181. With C86U C115G the “polymerase ribozyme fitness (log ratio)” value was -1.57. In the case of U32C G36A A83C, the “polymerase ribozyme fitness (log ratio)” value is reported as -3.09. For G113U G127U, the “polymerase ribozyme fitness (log ratio)” value was -4.46. For C34G A91G C114A U132A, the “polymerase ribozyme fitness (log ratio)” value was -6.48. For C28G A37C A91C, the “polymerase ribozyme fitness (log ratio)” value was -6.42. In the case of C49U U81G, the “polymerase ribozyme fitness (log ratio)” value is reported as -3.78. For G42U C56G, the “polymerase ribozyme fitness (log ratio)” value was -1.08. For C3A G93A A95G, the “polymerase ribozyme fitness (log ratio)” value was -2.11. In the case of G17A U78A G117A, the “polymerase ribozyme fitness (log ratio)” value is reported as -2.6. With G60U C70A C114U the “polymerase ribozyme fitness (log ratio)” value was -7.08. For G42A G44A C62U G63A U112G G120C, the “polymerase ribozyme fitness (log ratio)” value was -5.64. For G25C G42U G44U C104U C124U, the “polymerase ribozyme fitness (log ratio)” value was -7.89. For G69A A91C U125A, the “polymerase ribozyme fitness (log ratio)” value was -6.56. For G52A G57A U129A, the “polymerase ribozyme fitness (log ratio)” value was -2.51. For G110U G120C G127A G128U, the “polymerase ribozyme fitness (log ratio)” value was -4.38. In the case of A29C A50U, the “polymerase ribozyme fitness (log ratio)” value is reported as -2.67. In the case of G10U G45A U78A A100U, the “polymerase ribozyme fitness (log ratio)” value is reported as -1.09. With G69U C86A C104U the “polymerase ribozyme fitness (log ratio)” value was 0.251. With A46U G63A C86U the “polymerase ribozyme fitness (log ratio)” value was -2.45. For A18U G60A A90C, the “polymerase ribozyme fitness (log ratio)” value was -1.79. In the case of C11A C40U, the “polymerase ribozyme fitness (log ratio)” value is reported as -2.35. In the case of C70G G113C, the “polymerase ribozyme fitness (log ratio)” value is reported as -4. For C13U C20U A83G U96A, the “polymerase ribozyme fitness (log ratio)” value was -3.34. In the case of A83C A95U U116C, the “polymerase ribozyme fitness (log ratio)” value is reported as -1.65.
